The results in this text go back to patent US6500916B1, “Carrier polymers migrating into target organs and drug-containing polymers” (Ono Pharmaceutical Co., Ltd., priority 1998, dated 2002).

Data set [1] deals with CCl4 induced liver damage. Kind of data set: Effect on CCl4 induced liver damage (plasma GPT level). The format is in vivo. The note with it: mouse plasma, 18 hours fasting after CCl4 (10% v/v in sesame oil, 10 ml/kg i.p.); tail vein injection; Free PGE1 0.065 mg/kg, polymer 1 mg/kg. The method, then:
A solution of 10% (v/v) of CCl4 in sesame oil at dose of 10 ml/kg was administered into mouse abdominal cavity, and then drug (saline solution (Control), Free-PGE1 (Comparison), drug (PGE1)-containing polymer of the present invention PGE1-HZ-PLGA-HZ-Lac (reductive) (prepared in Example 6)) were injected into mouse through its tail vein at the setting dose. After the mouse had been fasted for 18 hours (25° C., water was freely given), blood was collected to assay GPT level (IU/L) in plasma.

A short description of data set [2]: Biodistribution of [3H]PGE1-containing polymer (Polymer P2) after tail vein injection. It is filed as in vivo, mouse. The settings on record: i.v., 3H label; for percentage of concentration in 1 ml of plasma: mean±S.D.; for percentage of urinary excretion: Urine. The procedure: PLGA-HZ-Gal (prepared in Example 3) and PLGA-HZ-Lac (prepared in Example 5) were labeled with ^111In and were injected into mouse through its tail vein at dose of 1 mg/kg to analyze biodistribution of them. The results are shown in Tables 1 and 2 (Each value in Tables means the percentage of concentration in 1 ml of plasma, the percentage of amount of accumulation in each organ and the percentage of urinary excretion of the said PLGA derivatives (mean±S.D.), respectively at various times after administration.).
Biodistribution of [^3H]PGE1-HZ-PLGA-HZ-Gal (prepared in Example 4, degree of polymerization=97) and [^3H]PGE1-ED-PLGA-ED-Gal (Comparison: the polymer described in International J. Pharmaceutics, 155, 65-74 (1997), degree of polymerization=101) was analyzed by the same procedure as described in Experiment 1. The results are shown in Tables 3 (Invention) and 4 (Comparison) (Each value in Tables means the percentage of concentration in 1 ml of plasma, the percentage of amount of accumulation in each organ and the percentage of urinary excretion of the said [^3H]PGE1 derivatives (mean±S.D.), respectively at various times after administration.).

For `CCCCCC(O)/C=C/C1C(O)CC(=O)C1CCCCCCC(=O)O` (centres unmarked) [Free PGE1, PGE1, reference compound], in data set [1], the GPT level turned out to be 660.89 ± 218.28 IU/L.

“PGE1-HZ-PLGA-HZ-Lac (Reductive/degree of Polymerization: d^3=0, x^3=35, y^3=36, z^3=22, w^3=4)” gave a GPT level in data set [1] of 239.12 ± 77.482 IU/L.

In the case of “[^3H]PGE1-HZ-PLGA-HZ-Gal (Degree of Polymerization: d^3=0, x^3=29, y^3=32, z^3=31, w^3=5) [[^3H]-PGE1-HZ-PLGA-HZ-Gal]”, the “percentage of amount of accumulation in organ” value (“percentage of amount … in organ” below) in data set [2] (Kidney, 1 min.) was found to be 1.26 ± 0.23%; in data set [2] (Kidney, 5 min.), 1.23 ± 0.06%; in data set [2] (Kidney, 10 min.) it was 0.79 ± 0.14%; in data set [2] (Kidney, 60 min.), 0.64 ± 0.22%; in data set [2] (Liver, 1 min.), 54.42 ± 0.79%; in data set [2] (Liver, 5 min.), 70.39 ± 3.51%. For the same molecule, the “percentage of amount … in organ” value is 80.54 ± 9.52% in data set [2] (Liver, 10 min.); 85.43 ± 3.78% in data set [2] (Liver, 60 min. (1 hour)); 1.88 ± 0.46% in data set [2] (Lung, 1 min.); 1.64 ± 0.56% in data set [2] (Lung, 5 min.); 1.00 ± 0.21% in data set [2] (Lung, 10 min.); 0.44 ± 0.18% in data set [2] (Lung, 60 min.). Besides, the “percentage of amount … in organ” value in data set [2] (Spleen, 1 min.) is on record as 1.11 ± 0.14%; in data set [2] (Spleen, 5 min.), 1.85 ± 0.10%; in data set [2] (Spleen, 10 min.) it was 1.24 ± 0.17%; in data set [2] (Spleen, 60 min.), 1.84 ± 0.16%. The “percentage of concentration in 1 ml of plasma” value was determined as 14.33 ± 0.75% in data set [2] (1 min. after administration), 1.64 ± 0.51% in data set [2] (5 min. after administration), 0.40 ± 0.06% in data set [2] (10 min. after administration) and 0.26 ± 0.07% in data set [2] (60 min. after administration). For the same molecule, the “percentage of urinary excretion” value in data set [2] (1 min.) turned out to be 0.00 ± 0.00%; in data set [2] (5 min.), 1.17 ± 1.01%; in data set [2] (10 min.) it was 1.79 ± 0.25%; in data set [2] (60 min.) it was 1.45 ± 0.83%.
